Source: the supplement of paper PMC7877785
± gives the uncertainty stated by the source.

Assay: self-splicing fitness, log relative to wild type (ln ratio); higher = more splicing; Tetrahymena group I intron in knt gene, E. coli kanamycin selection, DiMSum; sequences stand for … in CUCUCU…GGAGGGAAAAGUUAUCAGGCAUGCACCUGGUAGCUAGUCUUUAAACCAAUAGAUUGCAUCGGUUUAAAAGGCAAGACCGUCAAAUUGCGGGAAAGGGGUCAACAGCCGUUCAGUACCAAGUCUCAGGGGAAACUUUGAGAUGGCCUUGCAAAGGGUAUGGUAAUAAGCUGACGGACAUGGUCCUAACCACGCAGCCAAGUCCUAAGUCAACAGAUCUUCUGUUGAUAUGGAUGCAGUUCACAGACUAAAUGUCGGUCGGGGAAGAUGUAUUCUUCUCAUAAGAUAUAGUCGGACCUCUCCUUAAUGGGAGCUAGCGGAUGAAGUGAUGCAACACUGGAGCCGCUGGGAACUAAUUUGUAUGCGAAAGUAUAUUGAUUAGUUUUGGAGUACUCGUGGUCG
In short: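 The eight P1ex-region nucleotides of an intron in the knt kanamycin-resistance gene on pET-22b(+) were all randomised and the library put into E. coli BL21(DE3). Six replicate transformations were grown overnight at 37°C or 30°C on LB agar with or without 25 μg/mL kanamycin, together with 100 μg/mL carbenicillin, 50 μM IPTG and 0.2% rhamnose. Colonies were pooled and amplicon-sequenced on an Illumina HiSeq 2500. Fitness from DiMSum is the error-weighted combination of wild-type-normalised replicate fold changes, kanamycin over none.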

Sequence | self-splicing fitness (ln) (37 °C) | self-splicing fitness (ln) (30 °C)
CAGCAGCAAUAUUACGGACC | -1.84 ± 0.34 | 
CCGAAGCAAUAUUACGCUGU | -2.84 ± 0.4 | -3.74 ± 0.32
AUUGAGCAAUAUUACGUUGC | -1.64 ± 0.18 | -2.94 ± 0.33
GGGAAGCAAUAUUACGAACA | -0.445 ± 0.14 | -1.2 ± 0.13
GGCCAGCAAUAUUACGAUCG | -1.27 ± 0.15 | -3.35 ± 0.3
UUAGAGCAAUAUUACGGUCG | -0.691 ± 0.31 | -1.64 ± 0.19
GCAUAGCAAUAUUACGAUAC | -0.915 ± 0.14 | -1.47 ± 0.13
UAGAAGCAAUAUUACGGGGG | -2.25 ± 0.45 | 
UCCGAGCAAUAUUACGUGCU | -2.61 ± 0.29 | -3.32 ± 0.26
CUUUAGCAAUAUUACGUAUC | -3.21 ± 0.4 | -3.56 ± 0.35
UCUGAGCAAUAUUACGCUUG | -2.31 ± 0.3 | -4.34 ± 0.46
UAUUAGCAAUAUUACGACCC | -0.71 ± 0.33 | -3.2 ± 0.38
GAGUAGCAAUAUUACGUCAA | -1.8 ± 0.23 | -2.1 ± 0.19
ACCGAGCAAUAUUACGUUGA | -2.59 ± 0.21 | -2.98 ± 0.17
AGGCAGCAAUAUUACGUGCA | -0.142 ± 0.14 | -1.01 ± 0.1
AAAAAGCAAUAUUACGUAGA | -1.33 ± 0.065 | -2.21 ± 0.062
CACCAGCAAUAUUACGAUUA | -1.26 ± 0.11 | -2.82 ± 0.14
CGGCAGCAAUAUUACGAGUC | -1.76 ± 0.25 | -1.86 ± 0.34
GCGAAGCAAUAUUACGAUCU | -0.73 ± 0.079 | -1.09 ± 0.066
AUUAAGCAAUAUUACGGUGA | -0.588 ± 0.14 | -1.3 ± 0.13
CGGAAGCAAUAUUACGCUGU | -1.3 ± 0.08 | -3.49 ± 0.15
CGUAAGCAAUAUUACGUAGG | -0.149 ± 0.11 | -1.09 ± 0.082
CGCGAGCAAUAUUACGUUGA | -2.05 ± 0.2 | -3.51 ± 0.25
CCGUAGCAAUAUUACGAUGC | -1.39 ± 0.23 | -4.08 ± 0.36
CAUAAGCAAUAUUACGCACU | -0.81 ± 0.11 | -2.12 ± 0.11

Sequence | self-splicing fitness (ln) (37 °C) | self-splicing fitness (ln) (30 °C)
GGCGAGCAAUAUUACGAGUA | -1.99 ± 0.22 | -1.9 ± 0.35
UGGAAGCAAUAUUACGGUUG | -0.621 ± 0.13 | -1.46 ± 0.1
CUACAGCAAUAUUACGACCA | -2.31 ± 0.35 | -2.7 ± 0.3
GCGCAGCAAUAUUACGACAG | -3.05 ± 0.18 | -3.49 ± 0.17
AAAGAGCAAUAUUACGAAAU | -2.4 ± 0.24 | -2.67 ± 0.23
AUGCAGCAAUAUUACGGACU | 0.429 ± 0.094 | -0.194 ± 0.073
CCGCAGCAAUAUUACGAUCG | 0.186 ± 0.11 | 0.289 ± 0.083
GCACAGCAAUAUUACGCUAC | -2.29 ± 0.25 | -3.81 ± 0.37
GGGAAGCAAUAUUACGCUAG | -1.01 ± 0.2 | -1.73 ± 0.18
ACGUAGCAAUAUUACGUUCA | -0.777 ± 0.12 | -2.31 ± 0.13
GUGGAGCAAUAUUACGGUAU | -1.71 ± 0.27 | -2.04 ± 0.23
GGUGAGCAAUAUUACGGUUA | -1.85 ± 0.17 | -2.58 ± 0.22
GGUGAGCAAUAUUACGACAG |  | -3.05 ± 0.41
AUUAAGCAAUAUUACGGUUC | -0.609 ± 0.31 | -3.04 ± 0.35
AAGCAGCAAUAUUACGCUUU | -2.87 ± 0.22 | -4.53 ± 0.2
AUUAAGCAAUAUUACGCCUU | 0.373 ± 0.19 | -0.293 ± 0.16
AGGCAGCAAUAUUACGCGAU | -1.93 ± 0.21 | -4.3 ± 0.42
CUCAAGCAAUAUUACGGGAU | -1.34 ± 0.099 | -3.47 ± 0.12
ACUCAGCAAUAUUACGCCCA | -0.482 ± 0.15 | -1.42 ± 0.13
CGGGAGCAAUAUUACGUUUG | -2.11 ± 0.19 | -2.75 ± 0.17
CAAGAGCAAUAUUACGUCAA | -2.73 ± 0.25 | -3.43 ± 0.43
UUUUAGCAAUAUUACGCACG | -0.745 ± 0.17 | -0.889 ± 0.13
CGUGAGCAAUAUUACGAACA | -0.766 ± 0.17 | -0.649 ± 0.15
CGAUAGCAAUAUUACGCCAC | -0.944 ± 0.43 | -2.44 ± 0.44
CGGGAGCAAUAUUACGGAAU | -1.42 ± 0.43 | -4.07 ± 0.46

Sequence | self-splicing fitness (ln) (37 °C) | self-splicing fitness (ln) (30 °C)
ACCAAGCAAUAUUACGCGCU | 0.206 ± 0.089 | -0.723 ± 0.07
UGAAAGCAAUAUUACGCGCU | 0.297 ± 0.14 | -0.84 ± 0.11
GACGAGCAAUAUUACGGACC | -0.304 ± 0.33 | -1.34 ± 0.34
GCAGAGCAAUAUUACGAAGU | -1.03 ± 0.13 | -2.88 ± 0.12
GCGUAGCAAUAUUACGACUA | 0.571 ± 0.14 | 0.106 ± 0.14
AGCAAGCAAUAUUACGUAUG | -3.29 ± 0.18 | -3.61 ± 0.14
CGCUAGCAAUAUUACGAUGU | -1 ± 0.11 | -2.56 ± 0.11
AUUCAGCAAUAUUACGCGUC | -0.615 ± 0.21 | -1.11 ± 0.17
CCGUAGCAAUAUUACGAUCA | -2.34 ± 0.35 | -2.86 ± 0.32
CACAAGCAAUAUUACGACUU | -2.47 ± 0.21 | -3.49 ± 0.18
ACUAAGCAAUAUUACGUGAG | -0.636 ± 0.076 | -0.615 ± 0.057
GUAUAGCAAUAUUACGACGC | 0.113 ± 0.18 | -0.42 ± 0.16
GUAAAGCAAUAUUACGCAGU | -1.06 ± 0.16 | -2.99 ± 0.18
CGGAAGCAAUAUUACGGGCA | -1.6 ± 0.19 | -1.52 ± 0.16
GUAGAGCAAUAUUACGCCCG | -1.85 ± 0.3 | -2.15 ± 0.3
GAUUAGCAAUAUUACGCAUA | -0.967 ± 0.14 | -2.08 ± 0.17
AGCUAGCAAUAUUACGGUCG | 0.371 ± 0.1 | -0.942 ± 0.072
CGUCAGCAAUAUUACGCAUG | 0.0876 ± 0.082 | -1.06 ± 0.07
UCAAAGCAAUAUUACGGGGG | -1.49 ± 0.14 | -2.55 ± 0.14
UGCUAGCAAUAUUACGGAAA | -2.19 ± 0.31 | -2.19 ± 0.27
AACGAGCAAUAUUACGGACG | -1.05 ± 0.23 | -2.19 ± 0.2
CCAGAGCAAUAUUACGGGGU | -2.78 ± 0.34 | -2.35 ± 0.43
CGGAAGCAAUAUUACGGGUG | 0.544 ± 0.086 | -0.485 ± 0.09
UCUUAGCAAUAUUACGACAG | -1.56 ± 0.22 | -2.9 ± 0.24
AUGCAGCAAUAUUACGAAUG | -2.51 ± 0.28 | -2.15 ± 0.17

Sequence | self-splicing fitness (ln) (37 °C) | self-splicing fitness (ln) (30 °C)
GAGUAGCAAUAUUACGGGCC | -1.32 ± 0.13 | -2.52 ± 0.15
CAGCAGCAAUAUUACGCAAU | -1.29 ± 0.15 | -3.18 ± 0.24
GUGUAGCAAUAUUACGAGUA | -1.56 ± 0.19 | 
CUCUAGCAAUAUUACGAAGA | -2.75 ± 0.26 | 
CAUUAGCAAUAUUACGAACA | -0.317 ± 0.2 | -3.7 ± 0.42
CCGGAGCAAUAUUACGGCGU | -2.84 ± 0.26 | -4.4 ± 0.46
GCCAAGCAAUAUUACGGGUG | -0.591 ± 0.057 | -0.544 ± 0.049
UCUGAGCAAUAUUACGAUAC | -2.12 ± 0.25 | 
AGGUAGCAAUAUUACGAUAA | -0.626 ± 0.035 | -1.65 ± 0.018
ACGCAGCAAUAUUACGUCGC | -2.45 ± 0.22 | -1.16 ± 0.12
CGGCAGCAAUAUUACGUAGA | -1.19 ± 0.17 | -2.33 ± 0.12
AAAAAGCAAUAUUACGAUAG | -1.11 ± 0.15 | -3.26 ± 0.17
GCGCAGCAAUAUUACGCCAU | -1.84 ± 0.3 | -3.8 ± 0.38
CUAUAGCAAUAUUACGCAAU | -1.58 ± 0.21 | -3.66 ± 0.24
UCAUAGCAAUAUUACGAUGU | -0.735 ± 0.1 | -2.55 ± 0.12
UACCAGCAAUAUUACGUCAC | -2.32 ± 0.35 | -4.46 ± 0.42
AGGGAGCAAUAUUACGAGCA | -2.64 ± 0.21 | -3.26 ± 0.25
AUACAGCAAUAUUACGGAGG | -1.8 ± 0.19 | -3.46 ± 0.21
CGCAAGCAAUAUUACGCUUA | -1.8 ± 0.18 | -3.58 ± 0.35
UCCAAGCAAUAUUACGCAAU | -2.71 ± 0.26 | -3.44 ± 0.22
ACCUAGCAAUAUUACGCGAA | -1.99 ± 0.12 | -3.01 ± 0.19
CGUCAGCAAUAUUACGCGUG | -0.39 ± 0.066 | -0.575 ± 0.054
